Test results as given in publication PMC6366860 (Journal of molecular and cellular cardiology, 2018).

Target: F-actin from rabbit skeletal muscle (rabbit, UniProt P68135 1-377)
Experiment: co-sedimentation

B1: mouse short form C0-C2, C-terminal tagged (mSF1), lacking the 8 amino acid NTE (domain or fragment)
chain: PEPGKKPVSAFNKKPRSAEVTAGSAAVFEAETERSGVMVRWQRDGSDITANDKYGLAAEGKRHTLTVRDASPDDQGSYAVIAGSSKVKFDLKVTEPAPPEKAESEVAPGAPEEVPAPATELEESVSSPEGSVSVTQDGSAAEHQGAPDDPIGLFLMRPQDGEVTVGGSIVFSARVAGASLLKPPVVKWFKGKWVDLSSKVGQHLQLHDSYDRASKVYLFELHITDAQTTSAGGYRCEVSTKDKFDSCNFNLTVHEAIGSGDLDLRSAFRRTSLAGAGRRTSDSHEDAGTPDFSSLLKKRDSFRRDSKLEAPAEEDVWEILRQAPPSEYERIAFQHGVEACHRPLKRLKGMKQDEKKSTAFQKKLEPAYQVNKGHKIRLTVELADPDAEVKWLKNGQEIQMSGSKYIFESVGAKRTLTISQCSLADDAAYQCVVGGEKCSTELFVKEP
Kd: 10.7 µM
